For this test, the target named is ima4_human KPNA3 (UniProt O00505).
ima4_human KPNA3, sequence (O00505 whole entry): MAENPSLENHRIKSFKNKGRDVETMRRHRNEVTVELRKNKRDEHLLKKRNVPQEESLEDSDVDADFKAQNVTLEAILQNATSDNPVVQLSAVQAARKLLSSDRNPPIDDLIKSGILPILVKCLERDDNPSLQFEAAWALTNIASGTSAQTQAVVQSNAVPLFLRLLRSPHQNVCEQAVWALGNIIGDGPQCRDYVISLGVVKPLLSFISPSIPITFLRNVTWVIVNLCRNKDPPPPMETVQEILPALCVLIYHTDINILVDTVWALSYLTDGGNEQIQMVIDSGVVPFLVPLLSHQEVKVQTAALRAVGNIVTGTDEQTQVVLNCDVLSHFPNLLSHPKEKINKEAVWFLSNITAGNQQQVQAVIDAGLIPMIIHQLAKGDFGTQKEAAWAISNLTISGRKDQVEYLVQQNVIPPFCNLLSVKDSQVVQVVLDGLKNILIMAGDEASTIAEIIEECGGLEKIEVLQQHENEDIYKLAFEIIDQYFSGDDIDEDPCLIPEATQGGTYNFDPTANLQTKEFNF

For the substance “Circumsporozoite protein (Plasmodium yoelii yoelii), P06914 R315T;R317T;R319T”, the “effect of a mutation on the interaction” value is “decreasing interaction”.

(Values after IntAct's records for PubMed 17981117.)
